From PMC4385930 come the findings set out here.

Common to all, as to test: ITC
Experiment [1] has as its target Bid BH3 BH3 (Homo sapiens), P55957.
The target of experiment [2] is Bax BH3 BH3 (Homo sapiens), Q07812.
The target in experiment [3] is Bak BH3 BH3 (Homo sapiens), Q16611.

B1: F1L ΔN38ΔC36, P24356 (protein)
chain: YPLPENMVYRFDKSTNILDYLSTERDHVMMAVRYYMSKQRLDDLYRQLPTKTRSYIDIINIYCDKVSNDYNRDMNIMYDMASTKSFTVYDINNEVNTILMDNKGLGVRLATISFITELGRRCMNPVETIKMFTLLSHTICDDYFVDYITDIS
As for B1, the Kd turned out to be 3220 nM in experiment [1], 920 nM in experiment [2] and 2640 nM in experiment [3].

Usually Kd stands for the constant that tells how readily two partners part at equilibrium. High values mean weaker binding, low ones tighter binding.
